# Literature values in article PMC5969510, “Molecular mechanics of coiled coils loaded in the shear geometry” (Chemical Science, 2018).
# Conditions: unzip geometry
# Excerpt: To overcome these limitations and to investigate the sequence–structure–mechanics relationship of coiled coils in more systematic detail, site-specific coupling strategies were used in more recent experiments so that the mechanical coordinate was precisely defined. Using coiled coil homodimers, the force was applied to both helices at the same terminus so that the coiled coils were mechanically loaded in the so-called ‘unzip’ geometry.[11],[17],[37],[38]
substance,measurement,value
vimentin: intermediate filament protein with coiled coil (literature),unzipping (unfolding) force,8–15 pN
